The source of these data is patent publication US20260070987A1.

To fix the notation:
B1: equine IgG1 WT (antibody, part only; not given: Variable domains, not shown: another chain or arm of the molecule)
constant: ASTTAPKVFALAPGCGTTSDSTVALGCLVSGYFPEPVKVSWNSGSLTSGVHTFPSVLQSSGFYSLSSMVTVPASTWTSETYICNVVHAASNFKVDKRIEPIPDNHQKVCDMSKCPKCPAPELLGGPSVFIFPPNPKDTLMITRTPEVTCVVVDVSQENPDVKFNWYMDGVEVRTATTRPKEEQFNSTYRVVSVLRIQHQDWLSGKEFKCKVNNQALPQPIERTITKTKGRSQEPQVYVLAPHPDELSKSKVSVTCLVKDFYPPEINIEWQSNGQPELETKYSTTQAQQDSDGSYFLYSKLSVDRNRWQQGTTFTCGVMHEALHNHYTQKNVSKNPGK
B2: equine IgG1 N434G (antibody, part only; not given: variable domains, not shown: another chain or arm of the molecule)
constant: ASTTAPKVFALAPGCGTTSDSTVALGCLVSGYFPEPVKVSWNSGSLTSGVHTFPSVLQSSGFYSLSSMVTVPASTWTSETYICNVVHAASNFKVDKRIEPIPDNHQKVCDMSKCPKCPAPELLGGPSVFIFPPNPKDTLMITRTPEVTCVVVDVSQENPDVKFNWYMDGVEVRTATTRPKEEQFNSTYRVVSVLRIQHQDWLSGKEFKCKVNNQALPQPIERTITKTKGRSQEPQVYVLAPHPDELSKSKVSVTCLVKDFYPPEINIEWQSNGQPELETKYSTTQAQQDSDGSYFLYSKLSVDRNRWQQGTTFTCGVMHEALHGHYTQKNVSKNPGK
B3: equine IgG1 T286D (antibody, part only; not given: variable domains, not shown: another chain or arm of the molecule)
constant: ASTTAPKVFALAPGCGTTSDSTVALGCLVSGYFPEPVKVSWNSGSLTSGVHTFPSVLQSSGFYSLSSMVTVPASTWTSETYICNVVHAASNFKVDKRIEPIPDNHQKVCDMSKCPKCPAPELLGGPSVFIFPPNPKDTLMITRTPEVTCVVVDVSQENPDVKFNWYMDGVEVRDATTRPKEEQFNSTYRVVSVLRIQHQDWLSGKEFKCKVNNQALPQPIERTITKTKGRSQEPQVYVLAPHPDELSKSKVSVTCLVKDFYPPEINIEWQSNGQPELETKYSTTQAQQDSDGSYFLYSKLSVDRNRWQQGTTFTCGVMHEALHNHYTQKNVSKNPGK
B4: equine IgG1 N434K (antibody, part only; not given: variable domains, not shown: another chain or arm of the molecule)
constant: ASTTAPKVFALAPGCGTTSDSTVALGCLVSGYFPEPVKVSWNSGSLTSGVHTFPSVLQSSGFYSLSSMVTVPASTWTSETYICNVVHAASNFKVDKRIEPIPDNHQKVCDMSKCPKCPAPELLGGPSVFIFPPNPKDTLMITRTPEVTCVVVDVSQENPDVKFNWYMDGVEVRTATTRPKEEQFNSTYRVVSVLRIQHQDWLSGKEFKCKVNNQALPQPIERTITKTKGRSQEPQVYVLAPHPDELSKSKVSVTCLVKDFYPPEINIEWQSNGQPELETKYSTTQAQQDSDGSYFLYSKLSVDRNRWQQGTTFTCGVMHEALHKHYTQKNVSKNPGK
B5: equine IgG1 N434H (antibody, part only; not given: Variable domains, not shown: another chain or arm of the molecule)
constant: ASTTAPKVFALAPGCGTTSDSTVALGCLVSGYFPEPVKVSWNSGSLTSGVHTFPSVLQSSGFYSLSSMVTVPASTWTSETYICNVVHAASNFKVDKRIEPIPDNHQKVCDMSKCPKCPAPELLGGPSVFIFPPNPKDTLMITRTPEVTCVVVDVSQENPDVKFNWYMDGVEVRTATTRPKEEQFNSTYRVVSVLRIQHQDWLSGKEFKCKVNNQALPQPIERTITKTKGRSQEPQVYVLAPHPDELSKSKVSVTCLVKDFYPPEINIEWQSNGQPELETKYSTTQAQQDSDGSYFLYSKLSVDRNRWQQGTTFTCGVMHEALHHHYTQKNVSKNPGK
B6: equine IgG1 N434I (antibody, part only; not given: variable domains, not shown: another chain or arm of the molecule)
constant: ASTTAPKVFALAPGCGTTSDSTVALGCLVSGYFPEPVKVSWNSGSLTSGVHTFPSVLQSSGFYSLSSMVTVPASTWTSETYICNVVHAASNFKVDKRIEPIPDNHQKVCDMSKCPKCPAPELLGGPSVFIFPPNPKDTLMITRTPEVTCVVVDVSQENPDVKFNWYMDGVEVRTATTRPKEEQFNSTYRVVSVLRIQHQDWLSGKEFKCKVNNQALPQPIERTITKTKGRSQEPQVYVLAPHPDELSKSKVSVTCLVKDFYPPEINIEWQSNGQPELETKYSTTQAQQDSDGSYFLYSKLSVDRNRWQQGTTFTCGVMHEALHIHYTQKNVSKNPGK

The experiment addresses equine FcRn (large alpha subunit p51) / equine beta-2-microglobulin complex, biotinylated (equine) (UniProt P30441). The experiment is described as follows: SPR (Biacore), pH 6. (SPR reads the build-up and loss of mass on a sensor chip optically.)
Sequence of UniProt P30441 (P30441 21-118, one chain of several): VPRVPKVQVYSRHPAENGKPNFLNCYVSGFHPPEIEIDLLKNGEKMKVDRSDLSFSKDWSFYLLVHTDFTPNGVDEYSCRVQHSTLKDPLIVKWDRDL
Broadly, the Kd is the constant that tells how readily two partners part at equilibrium. A high value points to a looser complex. Molecule B1 yielded a Kd of 0.0225 µM.

In the case of B2, the dissociation constant Kd was 0.00557 µM. Molecule B3 came in with a Kd of 0.0239 µM.

In turn, B4 had a Kd of 0.0175 µM. In turn, B5 showed a Kd of 0.0041 µM. B6 returned a Kd of 0.0443 µM.
